The source of these data is article PMC4164784, “4E-BPs require non-canonical 4E-binding motifs and a lateral surface of eIF4E to repress translation” (Nature Communications, 2014).

No end group written: not given here.

The target in the assay is T1, Dm eIF4E (residues 69–248, WT) (Drosophila melanogaster, UniProt P48598).
T1 construct: The truncated His6-eIF4E (residues 69–248) that was used in the ITC experiments; His6 (N, cleaved yes); made in house; host or cells: E. coli BL21 Star (DE3)
T1 sequence (P48598 69-248 isoform P48598-2): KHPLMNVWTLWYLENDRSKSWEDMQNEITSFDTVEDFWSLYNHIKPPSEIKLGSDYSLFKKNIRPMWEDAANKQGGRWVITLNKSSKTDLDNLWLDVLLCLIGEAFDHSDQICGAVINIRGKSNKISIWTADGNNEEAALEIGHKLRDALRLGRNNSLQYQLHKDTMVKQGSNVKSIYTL
As to the kind of experiment: ITC, binding to eIF4E (WT, residues 69–248). The conditions noted are these: for entropic penalty (in words): bipartite regions; for TΔS / ΔG / Molar ratio / ΔH: eIF4E WT (69–248), pH 7.0, nb = no binding; for TΔS / ΔG / Kd / Molar ratio / ΔH: 20 °C; for Kd: VP-ITC, 20 mM Na-phosphate (pH 7.0), 150 mM NaCl, GB1-fused peptides (C+NC 10 μM, C 50 μM, L+NC 100 μM CUP or 200 μM Thor and 4E-T, eIF4G 20 μM) into eIF4E WT 1–20 μM, one-site model, each experiment repeated twice, nb = no binding. How it is done: Unless indicated otherwise, all the proteins were expressed in E. coli BL21 Star (DE3) cells (Invitrogen) that were grown in LB medium overnight at 20 °C. The lysis buffers were supplemented with DNaseI (5 μg ml^−1), lysozyme (1 mg ml^−1) and protease inhibitor cocktail (Roche). The truncated His6-eIF4E (residues 69–248) that was used in the ITC experiments and in Figs 2c and 5b was purified in lysis buffer containing 50 mM HEPES (pH 7.2), 300 mM NaCl, 20 mM imidazole and 2 mM β-mercaptoethanol using Ni^2+-affinity chromatography (HisTrap HP 5 ml, GE Healthcare) and eluted with a gradient of 20–500 mM imidazole. After the cleavage of the His6-tag with HRV3C protease (homemade), the protein was further purified using a heparin column (HiTrap Heparin HP 5 ml, GE Healthcare), followed by size exclusion chromatography (Superdex 75 16/60, GE Healthcare) in 20 mM Na-phosphate (pH 7.0), 300 mM NaCl and 2 mM dithiothreitol (DTT).
For the ITC measurements and the competition assays shown in Figs 4 and 5d–g, the 4E-BP peptides corresponding to the canonical (C) motifs, the combined (C+NC) motifs or L+NC were expressed with an HRV3C cleavable N-terminal MBP-tag and a non-cleavable C-terminal GB1 domain. The cells were lysed by sonication in lysis buffer containing 50 mM HEPES (pH 7.2), 300 mM NaCl and 2 mM DTT. The proteins were purified from the cleared lysates using amylose resin (New England Biolabs) followed by the cleavage of the MBP tag with HRV3C protease overnight at 4 °C. The proteins were further purified by size exclusion chromatography (Superdex 75 16/60, GE Healthcare) in 20 mM Na-phosphate (pH 7.0), 300 mM NaCl and 2 mM DTT. For the eIF4G fragment (residues 578–650) the MBP was removed after cleavage with TEV protease through an additional anion exchange chromatography (HiTrap Q HP 5 ml, GE Healthcare) before the final gel filtration.
The ITC experiments were performed using a VP-ITC microcalorimeter (MicroCal) at 20 °C. The solution of eIF4E (residues 69–248, WT or mutant: 1–20 μM) in the calorimetric cell was titrated with tenfold concentrated solutions of GB1-stabilized peptides corresponding to 4E-BPs C+NC (10 μM), C (50 μM), L+NC (100 μM CUP, 200 μM Thor and 4E-T) or eIF4G (residues 578–650, 20 μM) that were dissolved in the same buffer (20 mM Na-phosphate (pH 7.0) and 150 mM NaCl). The titration experiments consisted of an initial injection of 2 μl followed by 28 injections of 10 μl at an interval of 240 s. Each binding experiment was repeated twice. The thermodynamic parameters were estimated using a one-site binding model (Origin version 7.0), whereby the datapoint of the first injection was removed for the analysis.
(d) minimal regions for binding to eIF4E (wild-type (WT), residues 69–248). The top panels represent the raw data (μcal sec−1) whereas the bottom panels show the integrated data (kcal mole−1 of injectant) of heat changes that were best-fitted using a one-site binding model. The thermodynamic parameters correspond to heat changes that were detected when 4E-BPs (10 µM) or eIF4G (20 µM) were injected into the calorimetric cell (1.4 mL) containing 1 µM (a,b,c) or 2 µM (d) eIF4E.
Supplementary Figure 4. Thermodynamic parameters for the interaction of eIF4E with 4E-BP peptides. (a–f) ITC profiles for the interaction of eIF4E (WT, residues 69-248) and CUP (a,d), Thor (b,e) and 4E-T (c,f) peptides containing only the canonical motifs (a–c) or the L+NC regions (d–f). The measurements were performed as described in Supplementary
Fig. 3. The solutions contained the peptides corresponding to the canonical motifs (50 µM) or the L+NC regions (100 µM for CUP and 200 µM for Thor and 4E-T). The eIF4E concentration in the calorimetric cell was 5 µM (for the C peptides), 10 µM (for CUP L+NC) and 20 µM (for Thor and 4E-T L+NC peptides).
(1 picture or pasted object on this page, not shown here)
On the technique in general: Isothermal titration calorimetry measures the heat released or taken up as one component is titrated into another.

For the substance “4E-T C+NC: 4E-T residues 9–44, eIF4E-binding region short, C-terminal GB1”, the TΔS was -11.7 kcal/mol and the ΔG was -11.11 kcal/mol. Also, the “entropic penalty (in words)” value (eIF4E WT) is listed as “lower entropic penalties”.
Broadly, the Kd is the constant that tells how readily two partners part at equilibrium. Low values mean higher affinity, high ones lower affinity. For the substance “4E-T C: 4E-T residues 9–21, canonical motif”, the Kd came out at 16 nM, the Molar ratio is on record as 0.95±0.01, the TΔS was -8.16 kcal/mol and the ΔG was -10.45 kcal/mol. This substance also showed a ΔH of -18.6 ± 0.7 kcal/mol. Under “eIF4E WT, C motif peptides”, the “affinity of the 4E-T C peptide relative to CUP and Thor C peptides” value is “approximately one and two orders of magnitude higher than those of the CUP and Thor peptides, respectively”.
As to “CUP C+NC: CUP residues 325–376, eIF4E-binding region short, C-terminal GB1 (KSYTRSRLMDIRNGMFNALMHRSKESFVMPRIATCDDIELEGRLRRMNIWRT-GB1; UniProt Q9VMA3 325-376, looked up, fragment)”, the Kd was 9.1 nM, the Molar ratio worked out at 1.05±0.02, the TΔS was -23.9 kcal/mol and the ΔG is -10.78 kcal/mol. Besides, the ΔH is -34.5 ± 0.35 kcal/mol. Where the note is “eIF4E WT”, the “entropic penalty (in words)” value is reported as “highest entropic penalty”.
Take “Thor C+NC: Thor residues 50–83, eIF4E-binding region short, C-terminal GB1 (TKLIYERAFMKNLRGSPLSQTPPSNVPSCLLRGT-GB1; UniProt Q9XZ56 50-83, looked up, fragment)”: the TΔS was -4.9 kcal/mol and the ΔG was -11.87 kcal/mol. Moreover, the “entropic penalty (in words)” value (eIF4E WT) is “lower entropic penalties”.
“Thor C: Thor residues 50–63, canonical motif” yielded a TΔS of -2.24 kcal/mol.
